In article PMC3483155, “Inhibition of Pre-mRNA Splicing by a Synthetic Blom7α-Interacting Small RNA”:

Legend:
Blom7α wt = Blom7α wt (Homo sapiens, UniProt Q7Z7F0 1-614); experiment: EMSA; 1 mM Mg2+; 20 nM RNA, 0-50 nM protein; EMSA: PBS pH 7.5, 1 mM MgCl2, 1 mM DTT, 5% glycerol, 20 min at room temperature, gel at 4°C; SPR: 1x PBS, 1 mM Mg acetate, pH 7.0 (or HEPES + 3 mM Mg acetate)
Blom7-KH = Blom7-KH (Homo sapiens, UniProt Q7Z7F0 1-317); experiment: as above; settings: protein: recombinant; tags: His6 (C-terminal as named, pET30A); label: 3' biotin; single strand

B1: AK48 (ssRNA)
RNA: UGCCCCAAUCCUACACGACCCAAGGCCCCC
binding result (Blom7α wt): binds | binding result (Blom7-KH): binds
